The target of assay [1] is T1, MCL1 (Myeloid Cell Leukemia 1) (UniProt Q07820 1-350, limits assumed). The assay can be described thus: in vitro interaction assay with Fortilin deletion mutants. From the text: In vitro pull-down assay. Radiolabeled proteins for use in an in vitro binding assay were generated by a TNT Quick Coupled Transcription/Translation System (Promega, Madison, Wis.) according to the manufacturer's instructions, using [³⁵S]methionine (Amersham-Pharmacia, Piscataway, N.J.) as labeling agent. DNA templates were either circular plasmids or gel-purified PCR products containing a T7 RNA polymerase promoter. The in vitro translated, influenza hemagglutinin-tagged Fortilin (Fortilin-HA) or its mutants and another in vitro translated protein namely, MCL1, Bcl-xL, Bak, Bax or PCNA, were added to Buffer A (50 mM HEPES, pH 7.5, 70 mM KCl, 0.5 mM ATP, 5 mM MgSO₄, 1 mM DTT, 0.001% NP-40, 50 μM MG132, 2 μg/mL BSA, 2 μg/mL aporotinin, 0.5 mM PMSF and protease inhibitor cocktail [Sigma]), and allowed to form complexes at 4° C. for 90 minutes. Fortilin-HA or its mutants were then pulled down with rat anti-HA antibody (Clone 3F10; Roche Molecular Biochemicals, Indianapolis, Ind.) and sheep anti-rat polyclonal antibody conjugated to Dynabeads™ (M480; Dynal USA, Lake Success, N.Y.). Immune complexes were then washed 5 times with Buffer A and once with Buffer B (Buffer A supplemented with 0.01% NP-40). […]
T1 sequence (Q07820 whole entry): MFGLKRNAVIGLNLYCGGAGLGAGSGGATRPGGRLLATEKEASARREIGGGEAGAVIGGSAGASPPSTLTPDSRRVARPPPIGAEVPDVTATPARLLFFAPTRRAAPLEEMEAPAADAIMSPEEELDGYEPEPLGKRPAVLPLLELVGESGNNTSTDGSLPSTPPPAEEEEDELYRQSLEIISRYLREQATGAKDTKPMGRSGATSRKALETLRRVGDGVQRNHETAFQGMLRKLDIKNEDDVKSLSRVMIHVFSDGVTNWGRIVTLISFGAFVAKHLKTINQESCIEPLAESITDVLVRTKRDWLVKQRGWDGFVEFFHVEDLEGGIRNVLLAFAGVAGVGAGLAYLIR

The target of a further assay is T2, Bak (UniProt Q16611 1-211, limits assumed).
T2 construct: In vitro translated, [35S]Met-labelled
T2 sequence (looked up): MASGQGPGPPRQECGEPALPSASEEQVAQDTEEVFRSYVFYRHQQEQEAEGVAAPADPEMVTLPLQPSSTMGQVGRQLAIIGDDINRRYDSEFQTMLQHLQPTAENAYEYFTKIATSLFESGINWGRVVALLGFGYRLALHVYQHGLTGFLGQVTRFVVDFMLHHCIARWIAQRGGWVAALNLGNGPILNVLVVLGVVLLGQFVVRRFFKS
The assay can be described thus: in vitro pull-down with anti-HA antibody and Dynabeads, [35S]-labelled proteins. From the text:
(§1) In vitro pull-down assay. Radiolabeled proteins for use in an in vitro binding assay were generated by a TNT Quick Coupled Transcription/Translation System (Promega, Madison, Wis.) according to the manufacturer's instructions, using [³⁵S]methionine (Amersham-Pharmacia, Piscataway, N.J.) as labeling agent. DNA templates were either circular plasmids or gel-purified PCR products containing a T7 RNA polymerase promoter. The in vitro translated, influenza hemagglutinin-tagged Fortilin (Fortilin-HA) or its mutants and another in vitro translated protein namely, MCL1, Bcl-xL, Bak, Bax or PCNA, were added to Buffer A (50 mM HEPES, pH 7.5, 70 mM KCl, 0.5 mM ATP, 5 mM MgSO₄, 1 mM DTT, 0.001% NP-40, 50 μM MG132, 2 μg/mL BSA, 2 μg/mL aporotinin, 0.5 mM PMSF and protease inhibitor cocktail [Sigma]), and allowed to form complexes at 4° C. for 90 minutes. Fortilin-HA or its mutants were then pulled down with rat anti-HA antibody (Clone 3F10; Roche Molecular Biochemicals, Indianapolis, Ind.) and sheep anti-rat polyclonal antibody conjugated to Dynabeads™ (M480; Dynal USA, Lake Success, N.Y.). Immune complexes were then washed 5 times with Buffer A and once with Buffer B (Buffer A supplemented with 0.01% NP-40). Finally, precipitated proteins were eluted into SDS gel loading buffer (50 mM Tris-Cl, pH 6.8, 100 mM DTT, 2% SDS, 0.1% bromophenol blue, and 10% glycerol), boiled for 5 minutes, subjected to 12% SDS-polyacrylamide gel electrophoresis (SDS-PAGE) and visualized by fluorography and imaging with a phosphoimager system (Bio-Rad, Hercules, Calif.).

The next assay addresses T3, Bax (UniProt Q07812 1-192, limits assumed).
T3 construct: In vitro translated, [35S]Met-labelled
Described as above.
Excerpt: as §1

A further assay concerns the target T4, PCNA (UniProt P12004 1-261, limits assumed).
T4 construct: In vitro translated, [35S]Met-labelled
The assay is described as above.
Excerpt: as §1

In assay [2] the target is T1, MCL1 (Myeloid Cell Leukemia 1). The description is as above.
Excerpt: as §1

T3 sequence (Q07812 whole entry): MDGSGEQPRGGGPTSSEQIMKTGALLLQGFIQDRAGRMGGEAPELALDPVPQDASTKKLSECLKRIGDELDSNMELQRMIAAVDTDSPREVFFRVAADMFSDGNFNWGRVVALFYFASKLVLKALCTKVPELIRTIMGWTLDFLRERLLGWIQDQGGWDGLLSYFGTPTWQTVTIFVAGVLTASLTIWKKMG
T4 sequence (P12004 whole entry): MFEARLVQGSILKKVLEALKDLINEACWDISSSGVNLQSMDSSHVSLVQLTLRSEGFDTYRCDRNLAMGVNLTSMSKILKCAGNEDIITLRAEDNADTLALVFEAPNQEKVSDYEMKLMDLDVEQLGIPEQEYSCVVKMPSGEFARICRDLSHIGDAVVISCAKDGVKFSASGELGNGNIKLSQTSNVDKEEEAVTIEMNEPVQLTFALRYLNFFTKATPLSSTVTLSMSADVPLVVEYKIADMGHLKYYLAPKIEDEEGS

B1: HA-tagged Fortilin deletion mutant, amino acids 23-172 (other, not shown: small tags and cut ends)
chain: IADGLCLEVEGKMVSRTEGNIDDSLIGGNASAEGPEGEGTESTVITGVDIVMNHHLQETSFTKEAYKKYIKDYMKSIKGKLEEQRPERVKPFMTGAAEQIKHILANFKNYQFFIGENMNPDGMVALLDYREDGVTPYMIFFKDGLEMEKC
notes: Any added start methionine is not described
For the molecule B1, in assay [1], the binding result is given as “no binding”.

B2: influenza hemagglutinin-tagged Fortilin (Fortilin-HA), full-length, amino acids 1-172 (other, not shown: small tags and cut ends)
chain: MIIYRDLISHDEMFSDIYKIREIADGLCLEVEGKMVSRTEGNIDDSLIGGNASAEGPEGEGTESTVITGVDIVMNHHLQETSFTKEAYKKYIKDYMKSIKGKLEEQRPERVKPFMTGAAEQIKHILANFKNYQFFIGENMNPDGMVALLDYREDGVTPYMIFFKDGLEMEKC
notes: also called wild type Fortilin; wild-type fortilin
For the molecule B2, the binding result with Bak was “no binding”; with Bax, “no binding”; with PCNA, “no binding”; in assay [2] it was “binds”.

B3: HA-tagged Fortilin deletion mutant, amino acids 5-172 (other, not shown: small tags and cut ends)
chain: RDLISHDEMFSDIYKIREIADGLCLEVEGKMVSRTEGNIDDSLIGGNASAEGPEGEGTESTVITGVDIVMNHHLQETSFTKEAYKKYIKDYMKSIKGKLEEQRPERVKPFMTGAAEQIKHILANFKNYQFFIGENMNPDGMVALLDYREDGVTPYMIFFKDGLEMEKC
notes: as for B1
As for B3, the binding result in assay [2] was “binds”.

B4: HA-tagged Fortilin deletion mutant, amino acids 46-172 (other, not shown: small tags and cut ends)
chain: SLIGGNASAEGPEGEGTESTVITGVDIVMNHHLQETSFTKEAYKKYIKDYMKSIKGKLEEQRPERVKPFMTGAAEQIKHILANFKNYQFFIGENMNPDGMVALLDYREDGVTPYMIFFKDGLEMEKC
notes: as for B1
Regarding B4, the binding result in assay [1] is recorded as “no binding”.
